Drawing on US20190271021A1, this text covers BDNF activity in TrkBluciferase assay, EC50 [% or nM], BDNF activity in TrkBluciferase assay, EC50 [nM] and relative BDNF activity in TrkB luciferase assay, EC50 [%] for 19 molecules.

B1: pre-pro(IgA)-BDNF(-RGR)-His6 (ligand)
chain: MTILFLTMVISYFGCMKAAPMKEANIRGQGGLAYPGVRTHGTLESVNGPKAGSRGLTSLADTFEHVIEELLDEDQKVRPNEENNKDADLYTSRVMLSSQVPLEPPLLFLLEEYKNYLDAANMSMGSVVAPPAPHSDPARRGELSVCDSISEWVTAADKKTAVDMSGGTVTVLEKVPVSKGQLKQYFYETKCNPMGYTKEGCRGIDKRHWNSQCRTTQSYVRALTMDSKKRIGWRFIRIDTSCVCTLTIKGSGHHHHHH
B2: pre-pro(R54A)-BDNF(-RGR)-His6 (ligand)
chain: HSDPARRGELSVCDSISEWVTAADKKTAVDMSGGTVTVLEKVPVSKGQLKQYFYETKCNPMGYTKEGCRGIDKRHWNSQCRTTQSYVRALTMDSKKRIGWRFIRIDTSCVCTLTIKGSGHHHHHH
B3: pre-pro(His6-R54A-IgA)-BDNF(-RGR) (ligand)
chain: MTILFLTMVISYFGCMKAAPMKEANIHHHHHHAPMKEANIRGQGGLAYPGVRTHGTLESVNGPKAGSAGLTSLADTFEHVIEELLDEDQKVRPNEENNKDADLYTSRVMLSSQVPLEPPLLFLLEEYKNYLDAANMSMGSVVAPPAPHSDPARRGELSVCDSISEWVTAADKKTAVDMSGGTVTVLEKVPVSKGQLKQYFYETKCNPMGYTKEGCRGIDKRHWNSQCRTTQSYVRALTMDSKKRIGWRFIRIDTSCVCTLTIK
B4: pre-pro-BDNF(-RGR; G62N, Y63G, Q79T)-T7-His6 (ligand)
chain: APMKEANIRGQGGLAYPGVRTHGTLESVNGPKAGSRGLTSLADTFEHVIEELLDEDQKVRPNEENNKDADLYTSRVMLSSQVPLEPPLLFLLEEYKNYLDAANMSMRVRRHSDPARRGELSVCDSISEWVTAADKKTAVDMSGGTVTVLEKVPVSKGQLKQYFYETKCNPMNGTKEGCRGIDKRHWNSTCRTTQSYVRALTMDSKKRIGWRFIRIDTSCVCTLTIKGSGMASMTGGQQMGHHHHHH
B5: pre-pro-BDNF(-RGR; K25N, Q79T)-T7-His6 (ligand)
chain: APMKEANIRGQGGLAYPGVRTHGTLESVNGPKAGSRGLTSLADTFEHVIEELLDEDQKVRPNEENNKDADLYTSRVMLSSQVPLEPPLLFLLEEYKNYLDAANMSMRVRRHSDPARRGELSVCDSISEWVTAADNKTAVDMSGGTVTVLEKVPVSKGQLKQYFYETKCNPMGYTKEGCRGIDKRHWNSTCRTTQSYVRALTMDSKKRIGWRFIRIDTSCVCTLTIKGSGMASMTGGQQMGHHHHHH
B6: pre-pro-BDNF(-RGR; R81N)-T7-His6 (ligand)
chain: APMKEANIRGQGGLAYPGVRTHGTLESVNGPKAGSRGLTSLADTFEHVIEELLDEDQKVRPNEENNKDADLYTSRVMLSSQVPLEPPLLFLLEEYKNYLDAANMSMRVRRHSDPARRGELSVCDSISEWVTAADKKTAVDMSGGTVTVLEKVPVSKGQLKQYFYETKCNPMGYTKEGCRGIDKRHWNSQCNTTQSYVRALTMDSKKRIGWRFIRIDTSCVCTLTIKGSGMASMTGGQQMGHHHHHH
modifications: N-glycan at the introduced site (degree of glycosylation ++)
B7: pre-pro-BDNF(-RGR; Q79S)-T7-His6 (ligand)
chain: APMKEANIRGQGGLAYPGVRTHGTLESVNGPKAGSRGLTSLADTFEHVIEELLDEDQKVRPNEENNKDADLYTSRVMLSSQVPLEPPLLFLLEEYKNYLDAANMSMRVRRHSDPARRGELSVCDSISEWVTAADKKTAVDMSGGTVTVLEKVPVSKGQLKQYFYETKCNPMGYTKEGCRGIDKRHWNSSCRTTQSYVRALTMDSKKRIGWRFIRIDTSCVCTLTIKGSGMASMTGGQQMGHHHHHH
B8: pre-pro-BDNF(-RGR; Q79T, R81N)-T7-His6 (ligand)
chain: APMKEANIRGQGGLAYPGVRTHGTLESVNGPKAGSRGLTSLADTFEHVIEELLDEDQKVRPNEENNKDADLYTSRVMLSSQVPLEPPLLFLLEEYKNYLDAANMSMRVRRHSDPARRGELSVCDSISEWVTAADKKTAVDMSGGTVTVLEKVPVSKGQLKQYFYETKCNPMGYTKEGCRGIDKRHWNSTCNTTQSYVRALTMDSKKRIGWRFIRIDTSCVCTLTIKGSGMASMTGGQQMGHHHHHH
B9: pre-pro-BDNF(-RGR; G62N, Y63G, R81N)-T7-His6 (ligand)
chain: APMKEANIRGQGGLAYPGVRTHGTLESVNGPKAGSRGLTSLADTFEHVIEELLDEDQKVRPNEENNKDADLYTSRVMLSSQVPLEPPLLFLLEEYKNYLDAANMSMRVRRHSDPARRGELSVCDSISEWVTAADKKTAVDMSGGTVTVLEKVPVSKGQLKQYFYETKCNPMNGTKEGCRGIDKRHWNSQCNTTQSYVRALTMDSKKRIGWRFIRIDTSCVCTLTIKGSGMASMTGGQQMGHHHHHH
B10: pre-pro-BDNF(-RGR; K25N; G62N; Y63G)-T7-His6 (ligand)
chain: APMKEANIRGQGGLAYPGVRTHGTLESVNGPKAGSRGLTSLADTFEHVIEELLDEDQKVRPNEENNKDADLYTSRVMLSSQVPLEPPLLFLLEEYKNYLDAANMSMRVRRHSDPARRGELSVCDSISEWVTAADNKTAVDMSGGTVTVLEKVPVSKGQLKQYFYETKCNPMNGTKEGCRGIDKRHWNSQCRTTQSYVRALTMDSKKRIGWRFIRIDTSCVCTLTIKGSGMASMTGGQQMGHHHHHH
B11: pre-pro-BDNF(-RGR; T35N, Q79T)-T7-His6 (ligand)
chain: APMKEANIRGQGGLAYPGVRTHGTLESVNGPKAGSRGLTSLADTFEHVIEELLDEDQKVRPNEENNKDADLYTSRVMLSSQVPLEPPLLFLLEEYKNYLDAANMSMRVRRHSDPARRGELSVCDSISEWVTAADKKTAVDMSGGNVTVLEKVPVSKGQLKQYFYETKCNPMGYTKEGCRGIDKRHWNSTCRTTQSYVRALTMDSKKRIGWRFIRIDTSCVCTLTIKGSGMASMTGGQQMGHHHHHH
B12: pre-pro-BDNF(-RGR; T35N, G62N, Y63G, Q79T)-T7-His6 (ligand)
chain: APMKEANIRGQGGLAYPGVRTHGTLESVNGPKAGSRGLTSLADTFEHVIEELLDEDQKVRPNEENNKDADLYTSRVMLSSQVPLEPPLLFLLEEYKNYLDAANMSMRVRRHSDPARRGELSVCDSISEWVTAADKKTAVDMSGGNVTVLEKVPVSKGQLKQYFYETKCNPMNGTKEGCRGIDKRHWNSTCRTTQSYVRALTMDSKKRIGWRFIRIDTSCVCTLTIKGSGMASMTGGQQMGHHHHHH
B13: pre-pro-BDNF(-RGR; T35N; G62N; Y63G)-T7-His6 (ligand)
chain: APMKEANIRGQGGLAYPGVRTHGTLESVNGPKAGSRGLTSLADTFEHVIEELLDEDQKVRPNEENNKDADLYTSRVMLSSQVPLEPPLLFLLEEYKNYLDAANMSMRVRRHSDPARRGELSVCDSISEWVTAADKKTAVDMSGGNVTVLEKVPVSKGQLKQYFYETKCNPMNGTKEGCRGIDKRHWNSQCRTTQSYVRALTMDSKKRIGWRFIRIDTSCVCTLTIKGSGMASMTGGQQMGHHHHHH
B14: pre-pro(His6-R54A)-BDNF(-RGR) (ligand)
chain: MTILFLTMVISYFGCMKAAPMKEANIHHHHHHAPMKEANIRGQGGLAYPGVRTHGTLESVNGPKAGSAGLTSLADTFEHVIEELLDEDQKVRPNEENNKDADLYTSRVMLSSQVPLEPPLLFLLEEYKNYLDAANMSMRVRRHSDPARRGELSVCDSISEWVTAADKKTAVDMSGGTVTVLEKVPVSKGQLKQYFYETKCNPMGYTKEGCRGIDKRHWNSQCRTTQSYVRALTMDSKKRIGWRFIRIDTSCVCTLTIK
B15: pre-pro-BDNF, RGR deleted, GSG, C-terminal His6, R54A, IgA protease cleavage site (row 2 of Table 9) (ligand)
chain: APMKEANIRGQGGLAYPGVRTHGTLESVNGPKAGSAGLTSLADTFEHVIEELLDEDQKVRPNEENNKDADLYTSRVMLSSQVPLEPPLLFLLEEYKNYLDAANMSMGSVVAPPAPHSDPARRGELSVCDSISEWVTAADKKTAVDMSGGTVTVLEKVPVSKGQLKQYFYETKCNPMGYTKEGCRGIDKRHWNSQCRTTQSYVRALTMDSKKRIGWRFIRIDTSCVCTLTIKGSGHHHHHH
B16: pre-pro-BDNF(-RGR)-opsin(L)-His6 (ligand)
chain: APMKEANIRGQGGLAYPGVRTHGTLESVNGPKAGSRGLTSLADTFEHVIEELLDEDQKVRPNEENNKDADLYTSRVMLSSQVPLEPPLLFLLEEYKNYLDAANMSMRVRRHSDPARRGELSVCDSISEWVTAADKKTAVDMSGGTVTVLEKVPVSKGQLKQYFYETKCNPMGYTKEGCRGIDKRHWNSQCRTTQSYVRALTMDSKKRIGWRFIRIDTSCVCTLTIKGSGNGTEGPNFYVPFSNATGVVRHHHHHH
B17: pre-pro-BDNF(-RGR)-opsin(S)-His6 (ligand)
chain: APMKEANIRGQGGLAYPGVRTHGTLESVNGPKAGSRGLTSLADTFEHVIEELLDEDQKVRPNEENNKDADLYTSRVMLSSQVPLEPPLLFLLEEYKNYLDAANMSMRVRRHSDPARRGELSVCDSISEWVTAADKKTAVDMSGGTVTVLEKVPVSKGQLKQYFYETKCNPMGYTKEGCRGIDKRHWNSQCRTTQSYVRALTMDSKKRIGWRFIRIDTSCVCTLTIKGSGNGTEGPNFYVPFSNATGSGHHHHHH
B18: pre-pro-BDNF(-RGR)-opsin(S)-T7-His6 (ligand)
chain: APMKEANIRGQGGLAYPGVRTHGTLESVNGPKAGSRGLTSLADTFEHVIEELLDEDQKVRPNEENNKDADLYTSRVMLSSQVPLEPPLLFLLEEYKNYLDAANMSMRVRRHSDPARRGELSVCDSISEWVTAADKKTAVDMSGGTVTVLEKVPVSKGQLKQYFYETKCNPMGYTKEGCRGIDKRHWNSQCRTTQSYVRALTMDSKKRIGWRFIRIDTSCVCTLTIKGSGNGTEGPNFYVPFSNATGSGMASMTGGQQMGHHHHHH
B19: pre-pro-BDNF-T7-His6 (ligand)
chain: APMKEANIRGQGGLAYPGVRTHGTLESVNGPKAGSRGLTSLADTFEHVIEELLDEDQKVRPNEENNKDADLYTSRVMLSSQVPLEPPLLFLLEEYKNYLDAANMSMRVRRHSDPARRGELSVCDSISEWVTAADKKTAVDMSGGTVTVLEKVPVSKGQLKQYFYETKCNPMGYTKEGCRGIDKRHWNSQCRTTQSYVRALTMDSKKRIGWRFIRIDTSCVCTLTIKRGRGSGMASMTGGQQMGHHHHHH

The target in one test is human TrkB on CHO cells (CHO-K1-hTrkB/pSRE-Luc) (human) (UniProt Q16620). As to the kind of experiment: cell-based or functional assay.
human TrkB on CHO cells (CHO-K1-hTrkB/pSRE-Luc) (human), sequence (Q16620 32-822): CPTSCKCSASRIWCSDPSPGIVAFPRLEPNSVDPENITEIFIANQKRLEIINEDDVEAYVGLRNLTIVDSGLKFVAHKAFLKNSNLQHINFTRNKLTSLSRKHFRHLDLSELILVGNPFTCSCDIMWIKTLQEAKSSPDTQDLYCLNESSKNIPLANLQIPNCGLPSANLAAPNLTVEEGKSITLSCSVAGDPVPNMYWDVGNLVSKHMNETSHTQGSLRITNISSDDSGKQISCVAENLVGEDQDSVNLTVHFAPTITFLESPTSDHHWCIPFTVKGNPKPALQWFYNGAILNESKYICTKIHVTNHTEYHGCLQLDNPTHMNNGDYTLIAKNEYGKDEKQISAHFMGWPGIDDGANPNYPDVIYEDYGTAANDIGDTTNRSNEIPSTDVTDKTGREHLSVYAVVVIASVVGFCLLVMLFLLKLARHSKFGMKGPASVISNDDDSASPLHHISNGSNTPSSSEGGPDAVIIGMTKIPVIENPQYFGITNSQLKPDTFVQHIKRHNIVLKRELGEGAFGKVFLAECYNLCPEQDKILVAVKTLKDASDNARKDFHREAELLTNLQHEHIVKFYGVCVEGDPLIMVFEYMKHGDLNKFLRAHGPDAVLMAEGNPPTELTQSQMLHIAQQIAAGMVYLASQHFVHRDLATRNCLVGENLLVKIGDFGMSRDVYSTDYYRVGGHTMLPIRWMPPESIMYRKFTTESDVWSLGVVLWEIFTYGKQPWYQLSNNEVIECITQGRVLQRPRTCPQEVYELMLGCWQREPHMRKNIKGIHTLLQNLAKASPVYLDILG
In the case of B1, the BDNF activity in TrkBluciferase assay, EC50 [% or nM] worked out at 282% and the BDNF activity in TrkBluciferase assay, EC50 [nM] came out at 9.6 nM.
In turn, B2 registered a BDNF activity in TrkBluciferase assay, EC50 [nM] of 1.2 nM.
Same read-out and setting: the figure for B3 is 9.6 nM.
With B4, the BDNF activity in TrkBluciferase assay, EC50 [% or nM] amounted to 0.13 nM.
Still for that read-out and setting: next, B5: 0.21 nM.
Molecule B6 returned a BDNF activity in TrkBluciferase assay, EC50 [nM] of 0.8 nM.
Turning to B7, the BDNF activity in TrkBluciferase assay, EC50 [nM] amounted to 6.9 nM.
Turning to B8, the BDNF activity in TrkBluciferase assay, EC50 [% or nM] was 0.05 nM.
With B9, the BDNF activity in TrkBluciferase assay, EC50 [% or nM] came out at 203%.
With B10, the BDNF activity in TrkBluciferase assay, EC50 [% or nM] was 276%.
Still for that read-out and setting: next, B11: 0.064 nM; B12: 0.069 nM.
Still for that read-out and setting: next, B13: 0.039 nM.
B14 came in with a BDNF activity in TrkBluciferase assay, EC50 [nM] of 1.2 nM.
The same measure, in the same setting: the figure for B15 is 9.6 nM.
In the case of B16, the BDNF activity in TrkBluciferase assay, EC50 [% or nM] was found to be 555%; the BDNF activity in TrkBluciferase assay, EC50 [nM] amounted to 0.3 nM; the relative BDNF activity in TrkB luciferase assay, EC50 [%] stood at 10%.
B17 had a BDNF activity in TrkBluciferase assay, EC50 [nM] of 0.3 nM.
Consider B18, for which the BDNF activity in TrkBluciferase assay, EC50 [nM] turned out to be 0.3 nM.

Another test shares this target. As to the kind of experiment: cell-based or functional assay. The source holds these as a separate data set.
Consider B19, for which the BDNF activity in TrkBluciferase assay, EC50 [nM] worked out at 3 nM.
